One may read the Kd as the concentration at which binding is half-saturated.

Assay [1] has as its target myostatin mature domain mature domain (Homo sapiens) (UniProt O14793). The note with it: cited from earlier work.
In assay [2] the target is activin A mature domain (Homo sapiens) (UniProt P08476). The note with it: cited from earlier work.
For assay [3], the target named is myostatin mature domain (Homo sapiens) (UniProt O14793). The following applies: cited from earlier work.
For assay [4], the target named is Avi-tagged follistatin-288, biotinylated (UniProt P19883). The assay is described as follows: BLI; biotinylated Avi-tagged FST-288 immobilised on streptavidin biosensors; analytes in kinetic buffer (PBS, 0.1% bovine serum albumin, 0.02% Tween-20); 600 s association, 600 s dissociation; 30 °C.
Avi-tagged follistatin-288, biotinylated, sequence (P19883 30-317): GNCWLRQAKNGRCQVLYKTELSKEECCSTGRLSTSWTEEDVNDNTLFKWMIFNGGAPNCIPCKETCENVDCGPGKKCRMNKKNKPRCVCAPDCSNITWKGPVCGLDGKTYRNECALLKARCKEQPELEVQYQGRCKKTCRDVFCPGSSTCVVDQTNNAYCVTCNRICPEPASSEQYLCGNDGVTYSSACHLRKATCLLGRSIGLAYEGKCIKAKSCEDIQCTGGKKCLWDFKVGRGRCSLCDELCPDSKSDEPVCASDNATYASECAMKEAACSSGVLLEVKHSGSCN

follistatin, sequence (P19883 30-344): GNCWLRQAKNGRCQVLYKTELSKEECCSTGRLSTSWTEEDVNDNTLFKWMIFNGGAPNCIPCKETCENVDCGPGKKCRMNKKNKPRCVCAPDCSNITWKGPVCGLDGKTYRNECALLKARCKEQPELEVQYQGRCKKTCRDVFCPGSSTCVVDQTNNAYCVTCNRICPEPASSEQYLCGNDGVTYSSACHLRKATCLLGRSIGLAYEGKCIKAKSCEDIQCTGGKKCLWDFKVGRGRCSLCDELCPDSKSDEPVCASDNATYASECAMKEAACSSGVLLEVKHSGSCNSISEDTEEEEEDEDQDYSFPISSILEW
follistatin FST-288, sequence (P19883 30-344): as above
myostatin mature domain (Homo sapiens), sequence (O14793 267-375): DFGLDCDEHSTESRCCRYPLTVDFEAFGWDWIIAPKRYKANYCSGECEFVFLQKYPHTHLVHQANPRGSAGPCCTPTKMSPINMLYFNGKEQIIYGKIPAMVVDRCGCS
myostatin mature domain mature domain (Homo sapiens), sequence (O14793 267-375): as above
activin A mature domain (Homo sapiens), sequence (P08476 311-426): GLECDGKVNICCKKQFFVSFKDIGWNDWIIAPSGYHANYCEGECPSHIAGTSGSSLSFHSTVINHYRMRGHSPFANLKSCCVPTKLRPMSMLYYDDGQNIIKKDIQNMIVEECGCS
myostatin pro-domain pro-domain, sequence (O14793 24-266): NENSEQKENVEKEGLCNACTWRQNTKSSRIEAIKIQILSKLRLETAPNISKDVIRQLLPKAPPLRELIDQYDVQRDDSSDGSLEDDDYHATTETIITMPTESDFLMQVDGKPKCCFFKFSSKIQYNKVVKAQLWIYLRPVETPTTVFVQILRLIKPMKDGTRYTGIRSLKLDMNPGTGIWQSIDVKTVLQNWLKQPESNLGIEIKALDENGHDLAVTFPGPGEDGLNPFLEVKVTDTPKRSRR

Regarding “myostatin pro-domain pro-domain (from UniProt O14793)”, the dissociation constant (Kd) in assay [1] was 8.3 nM.
As for “follistatin FST-288 (from UniProt P19883)”, the Kd in assay [2] is 0.0465 nM.
As to follistatin (from UniProt P19883), the Kd in assay [3] was 12.3 nM.
Regarding “cleaved pro-activin A complex (pro-mature complex) (from UniProt P08476 311-426)”, in assay [4], the Kd is 0.259 nM.
